In patent US20260356924 (published 2026):
Changes are numbered by the printed parent chain. Each block holds one binder with its values, some of them ahead of it.

Legend:
[1] = target: T1, iPHF (human, UniProt P10636); assay: BLI
[2] = target: T1, iPHF; assay: SPR, KD2
[3] = target: T1, iPHF; assay: SPR, KD1
[4] = target: T1, iPHF; assay: SPR
[5] = target: T2, Tau409-426 pS416 pS422 peptide (human); assay: ELISA
T2 chain: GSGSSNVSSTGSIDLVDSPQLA

[6] = target: T3, Tau409-426 6-phospho peptide (human, not fully specified); assay: ELISA
T3 chain: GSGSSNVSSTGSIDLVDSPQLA

[7] = target: T4, Tau409-426 pS422 peptide (human); assay: ELISA
T4 chain: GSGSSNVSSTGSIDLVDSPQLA

[8] = target: T5, tau peptide 413-430 (human, phosphorylation not given)
T5 chain: STGSIDMVDSPQLATLAD

[9] = target: ePHF (human, UniProt P10636); assay: ELISA
ePHF, sequence (P10636 2-758): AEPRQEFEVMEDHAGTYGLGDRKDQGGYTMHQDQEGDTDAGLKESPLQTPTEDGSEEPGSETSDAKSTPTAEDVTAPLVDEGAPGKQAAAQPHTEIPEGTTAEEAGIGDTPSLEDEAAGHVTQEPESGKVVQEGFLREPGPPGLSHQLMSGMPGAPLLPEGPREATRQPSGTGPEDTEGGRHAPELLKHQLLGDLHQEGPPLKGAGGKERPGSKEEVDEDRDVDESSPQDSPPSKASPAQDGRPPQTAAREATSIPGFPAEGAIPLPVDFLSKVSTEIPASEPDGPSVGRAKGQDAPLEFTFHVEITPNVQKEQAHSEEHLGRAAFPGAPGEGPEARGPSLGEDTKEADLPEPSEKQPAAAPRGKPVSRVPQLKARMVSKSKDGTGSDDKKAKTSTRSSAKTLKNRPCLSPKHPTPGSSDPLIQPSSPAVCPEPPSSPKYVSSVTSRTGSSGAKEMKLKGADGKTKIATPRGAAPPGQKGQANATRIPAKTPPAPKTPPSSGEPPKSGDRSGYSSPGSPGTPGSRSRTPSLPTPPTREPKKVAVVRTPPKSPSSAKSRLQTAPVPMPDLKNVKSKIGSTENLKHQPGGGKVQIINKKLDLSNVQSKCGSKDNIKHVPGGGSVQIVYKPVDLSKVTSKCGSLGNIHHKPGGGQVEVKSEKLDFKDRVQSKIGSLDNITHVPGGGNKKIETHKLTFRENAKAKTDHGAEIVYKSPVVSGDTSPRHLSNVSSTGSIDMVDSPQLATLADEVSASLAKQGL

T1 sequence (P10636 2-758): as above

B1: V0052 (antibody, V domains shown)
VH: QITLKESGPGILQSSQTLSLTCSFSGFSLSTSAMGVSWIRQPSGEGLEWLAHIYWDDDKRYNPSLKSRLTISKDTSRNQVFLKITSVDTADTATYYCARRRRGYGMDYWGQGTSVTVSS
VL: SIVMTQTPKFLLVSAGDRVTITCKASQSVSNDVAWYQQKPGQSPKLLIYYASNRCTGVPDRFTGSGYGTDFTFTISTVQAEDLAVYFCQQDYRSPLTFGAGTKLELK
modifications: immunopurified paired helical filament tau, hyperphosphorylated
Kd [1]: 0.6 nM
Kd [2]: 2.64 nM
Kd [3]: 4.46 nM

B2: V0009 (antibody, V domains shown)
VH: EVQLVESGGALVQPGGSLSLSCAASGFTFTDYYMSWVRQPPGKALEWLALIRNKAKGFTTEYSASVKGRFTISRDNSQSILLFQMNDLRADDSATYYCVRDINYWGQGTTLTVSS
VL: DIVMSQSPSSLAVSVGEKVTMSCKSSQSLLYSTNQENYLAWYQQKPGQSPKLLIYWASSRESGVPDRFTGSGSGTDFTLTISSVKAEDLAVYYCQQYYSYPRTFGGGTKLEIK
modifications: immunopurified paired helical filament tau, hyperphosphorylated
Kd [1]: 0.2 nM
Kd [4]: 0.296 nM

B3: V0024 (antibody, V domains shown)
VH: QVQLQQPGTELVKPGASVKLSCKASGYTFTRFWMHWVKQRPGQGLEWIGNINPNNGGTDNNERFKSKATLTVDRSSSTAYMQLSSLTSEDSAVYYCARGTGTGAMDYWGQGTSVTVSS
VL: DVVMTQTPLSLPVSLGDQASISCRSSQSLVHSNGNTHLYWYLQKPGQSPKLLIYRVSSRFSGVPDRFSGSGSGTDFTLKISRVEAEDLGVYFCFQGTHVPRTFGGGTKLEIK
EC50 [5]: 0.22 nM
EC50 [6]: 0.222 nM
EC50 [7]: 0.233 nM
Kd [8]: 0.225 nM

B4: V0024 (antibody, V domains shown)
VH: B3 VH
VL: B3 VL
modifications: immunopurified paired helical filament tau, hyperphosphorylated
Kd [1]: 2.8 nM
Kd [4]: 0.124 nM

B6: V0023 (antibody, V domains shown)
VH: B3 VH with R31I, Q43H, N50K, T58G, N60Y, R63K, R74K, S77T, M81L
VL: B3 VL with Q18H, N35I, K44R, S48T, S58N, R82S, K112E
modifications: immunopurified paired helical filament tau, hyperphosphorylated
Kd [1]: 4 nM
Kd [4]: 0.0578 nM

B7: V0024 (antibody, V domains shown)
VH: B3 VH
VL: B3 VL
modifications: enriched paired helical filament tau, hyperphosphorylated
EC50 [9]: 0.125 nM

B10: V0023 (antibody, V domains shown)
VH: B3 VH with R31I, Q43H, N50K, T58G, N60Y, R63K, R74K, S77T, M81L
VL: B3 VL with Q18H, N35I, K44R, S48T, S58N, R82S, K112E
EC50 [5]: 0.252 nM
EC50 [6]: 0.217 nM
EC50 [7]: 0.234 nM
Kd [8]: 0.207 nM

The remaining lines, values ahead:

EC50 [9]: 0.07 nM
B5: V0022 (antibody, V domains shown)
VH: QVQLQQPGTELVKPGSSVNLSCKASGFTFTRYWMHWVKERPGHGLEWIGNINPNNGGTDFNEKFKNKATLTVHKSSTTVFIQLSSLTSEDSAVYYCARGTGTGAMDYWGQGTSVTVSS
VL: B3 VL with S32N, N35I, H37Y, S58N, S68G
modifications: enriched paired helical filament tau, hyperphosphorylated

Kd [1]: 0.3 nM
Kd [4]: 0.0439 nM
B8: V0022 (antibody, V domains shown)
VH: B5 VH
VL: B3 VL with S32N, N35I, H37Y, S58N, S68G
modifications: immunopurified paired helical filament tau, hyperphosphorylated

EC50 [5]: 0.283 nM
EC50 [6]: 0.302 nM
EC50 [7]: 0.288 nM
Kd [8]: 0.306 nM
B9: V0022 (antibody, V domains shown)
VH: B5 VH
VL: B3 VL with S32N, N35I, H37Y, S58N, S68G
